Source: the supplement of paper PMC9112550, “Optimization of the antimicrobial peptide Bac7 by deep mutational scanning” (BMC Biology, 2022)

Test system: Escherichia coli TOP10
Assay: shrunken log2 fold change of peptide-encoding DNA abundance (4.5 h post-induction vs induction); higher = less antimicrobial activity (less host growth inhibition)
Conditions: time post-induction: 4.5 h; library: site-saturation at positions 5, 18, 19, 20
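Further: peptides expressed intracellularly from a pBAD plasmid library in pooled LB shake-flask culture, induced with 0.3% L-arabinose, DNA abundance read by NGS, three biological replicates, DESeq2 with apeglm shrinkage.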

Sequence	shrunken log2 fold change
RRIRFRPPRLPRPRPRPICHPRP	-0.351
RRIRWRPPRLPRPRPRPKSHPRP	0.249
RRIRWRPPRLPRPRPRPFYRPRP	-0.179
RRIRTRPPRLPRPRPRPMWFPRP	0.253
RRIRCRPPRLPRPRPRPVMGPRP	0.111
RRIRTRPPRLPRPRPRPYKCPRP	-0.372
RRIRDRPPRLPRPRPRPITIPRP	-0.175
RRIRNRPPRLPRPRPRPDTKPRP	-0.0152
RRIRARPPRLPRPRPRPWLPPRP	0.197
RRIRLRPPRLPRPRPRPQYDPRP	-0.155
RRIRGRPPRLPRPRPRPVATPRP	2.32
RRIRRRPPRLPRPRPRPRHQPRP	0.277
RRIRARPPRLPRPRPRPWILPRP	0.223
RRIRYRPPRLPRPRPRPERAPRP	0.173
RRIRERPPRLPRPRPRPCFWPRP	-0.176
RRIRDRPPRLPRPRPRPCWDPRP	0.392
RRIRGRPPRLPRPRPRPMPVPRP	0.447
RRIRDRPPRLPRPRPRPVHVPRP	0.0158
RRIRMRPPRLPRPRPRPVSGPRP	0.594
RRIRQRPPRLPRPRPRPLVVPRP	0.0686
RRIRVRPPRLPRPRPRPIMIPRP	-1.08
RRIRWRPPRLPRPRPRPLMIPRP	-0.304
RRIRKRPPRLPRPRPRPYHNPRP	-0.227
RRIRSRPPRLPRPRPRPAQMPRP	0.437
RRIRCRPPRLPRPRPRPKIVPRP	-0.29

Sequence	shrunken log2 fold change
RRIRSRPPRLPRPRPRPPTNPRP	0.298
RRIRTRPPRLPRPRPRPTASPRP	0.0344
RRIRTRPPRLPRPRPRPIHKPRP	-0.281
RRIRRRPPRLPRPRPRPAPSPRP	0.809
RRIRCRPPRLPRPRPRPCGRPRP	-0.184
RRIRGRPPRLPRPRPRPQWWPRP	0.53
RRIRKRPPRLPRPRPRPGILPRP	0.28
RRIRCRPPRLPRPRPRPIWMPRP	-0.677
RRIRIRPPRLPRPRPRPFDSPRP	0.0157
RRIRFRPPRLPRPRPRPYVQPRP	-0.0133
RRIRPRPPRLPRPRPRPTAFPRP	0.238
RRIRRRPPRLPRPRPRPHCWPRP	0.11
RRIRRRPPRLPRPRPRPMHFPRP	0.0461
RRIRDRPPRLPRPRPRPKDYPRP	-0.192
RRIRVRPPRLPRPRPRPTCGPRP	0.0207
RRIRPRPPRLPRPRPRPGYNPRP	-0.552
RRIRQRPPRLPRPRPRPVWKPRP	0.121
RRIRHRPPRLPRPRPRPWIGPRP	-0.0136
RRIRMRPPRLPRPRPRPKDAPRP	2.02
RRIRMRPPRLPRPRPRPLSVPRP	0.401
RRIRFRPPRLPRPRPRPQSFPRP	0.00824
RRIRMRPPRLPRPRPRPLEKPRP	1.07
RRIRRRPPRLPRPRPRPHKPPRP	-0.176
RRIRPRPPRLPRPRPRPPCYPRP	0.0837
RRIRGRPPRLPRPRPRPISNPRP	0.0729

Sequence	shrunken log2 fold change
RRIRGRPPRLPRPRPRPIEGPRP	0.0275
RRIRDRPPRLPRPRPRPIMEPRP	0.594
RRIRARPPRLPRPRPRPGCGPRP	0.887
RRIRYRPPRLPRPRPRPWVMPRP	-0.195
RRIRFRPPRLPRPRPRPWSKPRP	-0.079
RRIRIRPPRLPRPRPRPFFLPRP	-0.406
RRIRYRPPRLPRPRPRPFMKPRP	-0.272
RRIRLRPPRLPRPRPRPQKGPRP	-0.183
RRIRTRPPRLPRPRPRPGHRPRP	-0.216
RRIRWRPPRLPRPRPRPASMPRP	-0.0478
RRIRMRPPRLPRPRPRPEWYPRP	0.0183
RRIRTRPPRLPRPRPRPTMRPRP	0.867
RRIRNRPPRLPRPRPRPLSAPRP	-0.097
RRIRDRPPRLPRPRPRPFCAPRP	0.652
RRIRERPPRLPRPRPRPMFDPRP	-0.121
RRIRVRPPRLPRPRPRPQASPRP	0.322
RRIRLRPPRLPRPRPRPVFKPRP	-0.134
RRIRWRPPRLPRPRPRPIQNPRP	-0.394
RRIRDRPPRLPRPRPRPIIAPRP	0.0706
RRIRLRPPRLPRPRPRPNDGPRP	-0.127
RRIRKRPPRLPRPRPRPPIWPRP	0.106
RRIRTRPPRLPRPRPRPTQWPRP	0.364
RRIRERPPRLPRPRPRPSIYPRP	-1
RRIRWRPPRLPRPRPRPLECPRP	0.0173
RRIRQRPPRLPRPRPRPEMDPRP	0.231

Sequence	shrunken log2 fold change
RRIRRRPPRLPRPRPRPKTSPRP	2.22
RRIRDRPPRLPRPRPRPMKFPRP	-0.00192
RRIRMRPPRLPRPRPRPCDAPRP	0.261
RRIRFRPPRLPRPRPRPFVLPRP	-0.532
RRIRMRPPRLPRPRPRPRKHPRP	0.826
RRIRQRPPRLPRPRPRPDCWPRP	-0.0539
RRIRIRPPRLPRPRPRPLFIPRP	-0.525
RRIRSRPPRLPRPRPRPNPNPRP	-0.283
RRIRTRPPRLPRPRPRPQRKPRP	0.138
RRIRPRPPRLPRPRPRPAARPRP	0.727
RRIRNRPPRLPRPRPRPVIYPRP	-0.301
RRIRFRPPRLPRPRPRPTCIPRP	-0.13
RRIRRRPPRLPRPRPRPLIMPRP	-0.325
RRIRSRPPRLPRPRPRPAFPPRP	0.278
RRIRERPPRLPRPRPRPLQVPRP	-0.384
RRIRIRPPRLPRPRPRPWTKPRP	0.0573
RRIRIRPPRLPRPRPRPGCEPRP	-0.0688
RRIRVRPPRLPRPRPRPYFYPRP	-0.474
RRIRCRPPRLPRPRPRPGMEPRP	0.183
RRIRLRPPRLPRPRPRPCLHPRP	-0.113
RRIRARPPRLPRPRPRPLSKPRP	-0.0286
RRIRIRPPRLPRPRPRPVVYPRP	-0.312
RRIRGRPPRLPRPRPRPACTPRP	1.17
RRIRVRPPRLPRPRPRPFGSPRP	-0.137
RRIRGRPPRLPRPRPRPLWQPRP	0.766

Sequence	shrunken log2 fold change
RRIRLRPPRLPRPRPRPYFRPRP	-0.78
RRIRPRPPRLPRPRPRPGCGPRP	0.514
RRIRPRPPRLPRPRPRPLGCPRP	0.376
RRIRQRPPRLPRPRPRPKPWPRP	0.502
RRIRFRPPRLPRPRPRPTHMPRP	0.0264
RRIRWRPPRLPRPRPRPACWPRP	0.517
RRIRARPPRLPRPRPRPHLYPRP	-0.218
RRIRTRPPRLPRPRPRPEPFPRP	0.0259
RRIRPRPPRLPRPRPRPSNNPRP	-0.542
RRIRKRPPRLPRPRPRPESGPRP	0.918
RRIRVRPPRLPRPRPRPTPHPRP	0.313
RRIRSRPPRLPRPRPRPRHGPRP	0.196
RRIRVRPPRLPRPRPRPKLPPRP	-0.266
RRIRFRPPRLPRPRPRPNVEPRP	0.0199
RRIRGRPPRLPRPRPRPYTTPRP	-0.083
RRIRLRPPRLPRPRPRPAHKPRP	0.384
RRIRDRPPRLPRPRPRPVHEPRP	-0.0506
RRIRCRPPRLPRPRPRPFSFPRP	-0.513
RRIRRRPPRLPRPRPRPNEVPRP	-0.0332
RRIRIRPPRLPRPRPRPISIPRP	0.0772
RRIRIRPPRLPRPRPRPQVRPRP	-0.223
RRIRKRPPRLPRPRPRPVTTPRP	0.0429
RRIRARPPRLPRPRPRPNNGPRP	0.00213
RRIRPRPPRLPRPRPRPTCQPRP	-0.0775
RRIRMRPPRLPRPRPRPTFYPRP	-0.157
